Laboratory results reported in paper PMC4629521.

What was measured:
[1] = cross-linking + SEC
[2] = target: P1Ara, TOMP1 partially dearabinosylated by alpha-L-arabinofuranosidase (tomato); assay: cross-linking + SEC
[3] = target: P1pH2, TOMP1 partially dearabinosylated by pH 2.0 HCl (tomato); assay: cross-linking + SEC
[4] = tested on: Q9FS16; assay: cross-linking + SEC
[5] = target: RSH, monomeric extensin from Arabidopsis (native) (Arabidopsis) (UniProt Q9FS16); assay: cross-linking + SEC
[6] = target: RSHAra, RSH partially dearabinosylated by alpha-L-arabinofuranosidase (Arabidopsis) (UniProt Q9FS16); assay: cross-linking + SEC
[7] = target: RSHpH2, RSH partially dearabinosylated by pH 2.0 HCl (Arabidopsis) (UniProt Q9FS16); assay: cross-linking + SEC
[8] = target: TOMP1, tomato extensin precursor 1 (native) (tomato); assay: cross-linking + SEC

P1Ara, TOMP1 partially dearabinosylated by alpha-L-arabinofuranosidase
monomer peak area loss (5~30 min XL) [1]: 24.9%

P1Ara, TOMP1 partially dearabinosylated by alpha-L-arabinofuranosidase (natural protein)
initial cross-linking rate [2]: 28.5 µg/mL⋅min

P1pH2, TOMP1 partially dearabinosylated by pH 2.0 HCl
monomer peak area loss (5~30 min XL) [1]: 54.2%

P1pH2, TOMP1 partially dearabinosylated by pH 2.0 HCl (natural protein)
initial cross-linking rate [3]: 95.3 µg/mL⋅min

RSH, monomeric extensin from Arabidopsis (native)
monomer peak area loss (5~30 min XL) [4]: 80.3%

RSH, monomeric extensin from Arabidopsis (native) (from UniProt Q9FS16 28-431) (natural protein)
initial cross-linking rate [5]: 269 µg/mL⋅min

RSHAra, RSH partially dearabinosylated by alpha-L-arabinofuranosidase
monomer peak area loss (5~30 min XL) [4]: 40.1%

RSHAra, RSH partially dearabinosylated by alpha-L-arabinofuranosidase (from UniProt Q9FS16 28-431) (natural protein)
initial cross-linking rate [6]: 85 µg/mL⋅min

RSHpH2, RSH partially dearabinosylated by pH 2.0 HCl
monomer peak area loss (5~30 min XL) [4]: 74.2%

RSHpH2, RSH partially dearabinosylated by pH 2.0 HCl (from UniProt Q9FS16 28-431) (natural protein)
initial cross-linking rate [7]: 223 µg/mL⋅min

TOMP1, tomato extensin precursor 1 (native)
monomer peak area loss (5~30 min XL) [1]: 73.9%

TOMP1, tomato extensin precursor 1 (native) (natural protein)
initial cross-linking rate [8]: 213 µg/mL⋅min
